# Laboratory results as given in publication PMC9342898.
# Where two headings read alike, the source gives them in different places.
# B1: nuclear dot protein 52 (NDP52) (natural protein)
# chain: MEETIKDPPTSAVLLDHCHFSQVIFNSVEKFYIPGGDVTCHYTFTQHFIPRRKDWIGIFRVGWKTTREYYTFMWVTLPIDLNNKSAKQQEVQFKAYYLPKDDEYYQFCYVDEDGVVRGASIPFQFRPENEEDILVVTTQGEVEEIEQHNKELCKENQELKDSCISLQKQNSDMQAELQKKQEELETLQSINKKLELKVKEQKDYWETELLQLKEQNQKMSSENEKMGIRVDQLQAQLSTQEKEMEKLVQGDQDKTEQLEQLKKENDHLFLSLTEQRKDQKKLEQTVEQMKQNETTAMKKQQELMDENFDLSKRLSENEIICNALQRQKERLEGENDLLKRENSRLLSYMGLDFNSLPYQVPTSDEGGARQNPGLAYGNPYSGIQESSSPSPLSIKKCPICKADDICDHTLEQQQMQPLCFNCPICDKIFPATEKQIFEDHVFCHSL
# modifications: Alexa Fluor 555 label in the stopped-flow FRET assay (site not stated); unlabelled elsewhere
# B2: nuclear dot protein 52 (NDP52), Q13137 1-446 (natural protein)
# chain: B1 chain
# modifications: here or on the partner: Alexa Fluor 555 label in the stopped-flow FRET assay (site not stated); unlabelled elsewhere; Alexa Fluor 555 label in the stopped-flow FRET assay (site not stated); unlabelled elsewhere
# Columns and labels:
# [1] = target: Full-length MVI NI
# [2] = target: F-actin (UniProt P68135); experiment: pull-down; actin isolation: 5 µM MVI ± 15 µM NDP52 with 5 µM F-actin (20% biotinylated), streptavidin Dynabeads, 150 mM NaCl, 50 mM Tris.HCl pH 7.5, 1 mM MgCl2, 1 mM DTT, RT; SDS–PAGE of pellet and supernatant
# [3] = target: MVI_(1–1060)
# [4] = target: MVI_(TAIL(NI)); experiment: FRET or BRET; stopped flow; 1 µM FITC-MVI_TAIL(NI) and 1 µM AF555-MVI_TAIL(NI) pre-mixed, then mixed with an excess of unlabelled NDP52, pseudo-first order; 25°C, 50 mM Tris–HCl pH 7.5, 150 mM NaCl, 1 mM DTT, 3 mM MgCl2
# [5] = target: MVI_(TAIL(NI)); experiment: as above; remark: listed apart in the source
# [6] = target: MVI_(814–1060); experiment: FRET or BRET; titration of Alexa555-CBD against 1 µM FITC-labelled N-terminal tail fragment, plate reader, 25°C, 50 mM Tris·HCl pH 7.5, 150 mM NaCl, 1 mM DTT; fitted to a quadratic binding equation
# [7] = target: MVI_(814–1091) (containing the LI); experiment: as above
# [8] = target: MVI_(TAIL(NI))
# [9] = target: MVI_(TAIL(NI)); experiment: FRET or BRET; stopped flow; 1 µM FITC-MVI_TAIL(NI) mixed with excess AF555-NDP52, pseudo-first order; 25°C, 50 mM Tris–HCl pH 7.5, 150 mM NaCl, 1 mM DTT, 3 mM MgCl2
# [10] = target: T1, nuclear dot protein 52 (NDP52), Q13137; experiment: SEC-MALS; 100 µl of 2 mg/ml protein on Superdex 200 (30 × 1 cm), 150 mM NaCl, 50 mM Tris.HCl pH 7.5, 1 mM DTT, room temperature; conditions: remark: other sources report otherwise
# T1 chain: B1 chain
molecule,measurement,setting,value
Full-length MVI NI (natural protein),kcat of the steady-state actin-activated ATPase of full-length MVI in the presence of dimeric NDP52,[1],2.11 s⁻¹
same,kcat of the steady-state actin-activated ATPase of full-length MVI in the presence of monomeric tDab2,[1],2.55 s⁻¹
same,percent of MVI bound to actin,[2],50%
same,percent of MVI bound to actin (with an excess of NDP52),[2],> 80%
MVI_(1–1060) (domain or fragment),kcat of the steady-state actin-activated ATPase of MVI 1-1060,[3],2.79 s⁻¹
MVI_(TAIL(NI)) (domain or fragment),observed rate constant of the FRET increase (dimerization after adding NDP52),[4],2.45 s⁻¹
same,observed rate constant of the FRET increase (dimerization after adding NDP52),[5],2.2 s⁻¹
Myosin VI cargo binding domain (CBD) (domain or fragment),Kd,[6],4.8 µM
same,Kd,[7],5.98 µM
B1,rate constant of the fluorescence decrease of Cy3B-calmodulin bound to MVI TAIL(NI) on mixing with excess NDP52 (unfolding; independent of NDP52 concentration),[8],1.95 s⁻¹
same,Kd,[9],1.94 µM
same,koff,[9],3.2 s⁻¹
same,kon,[9],1.65e+06 M⁻¹ s⁻¹
same,"rate constant of the second phase (unfolding after binding, independent of NDP52 concentration)",[9],2.2 s⁻¹
B2,stoichiometry N,[10],2
